Measurements: the supplement of paper PMC9732359
± gives the uncertainty stated by the source.

experiment: protein stability index of a GFP-peptide fusion (yeast GPS) (PSI 1-4); higher = more stable; sorted into four equal gates, so the index is relative within each strain; details: pdr5∆
Method in brief: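 Sequencing reads from sorted gates were used to score each peptide. The library consisted of tiled 17-residue yeast protein peptides fused downstream of GFP on a Cherry-expressing plasmid, pooled and carried in yeast. Mid-log cultures in leucine-free medium were split into four equal gates by GFP/Cherry ratio, and each gate's plasmids were PCR-amplified and Illumina-sequenced. The protein stability index adds up, over all gates, the read frequency multiplied by the gate number.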

| Sequence | protein stability index |
| --- | --- |
| TKFKVRGSSSLYTLVIN [RPL38] | 1.32 ± 0.09 |
| TKFLAKNGVIPEESKGS [SWP82] | 3.16 ± 0.11 |
| TKIFNSVAEVFQKAQGS [YCG1] | 1.55 ± 0.23 |
| TKIKPFIKVVNYNHLLP [RPL27A] | 2.35 ± 0.094 |

same assay, conditions: san1∆

| Sequence | protein stability index |
| --- | --- |
| SVINNYLREDQMIDTSI [NUT1] | 3.32 ± 0.083 |
| SVIQLCGGINDSIPYPQ [ECM29] | 2.57 ± 0.13 |
| SVIVDSKVTVPPSKHST [ESC2] | 2.72 ± 0.092 |
| SVKPHVVEPEHMADAKI [SIR4] | 3.1 ± 0.1 |
| SVLLQQLLTPGSKISSN [YGL172W/NUP49] | 3.09 ± 0.099 |
| SVLNPFLLRRVKADVEK [ISW2] | 1.18 ± 0.15 |
| SVMDPITSKRKAELLLK [DIS3] | 2.55 ± 0.12 |
| SVPLMINAKNIAFASNY [RRP43] | 1.27 ± 0.14 |
| SVPLVIGQFLEPIDQNT [RPT3] | 2.95 ± 0.13 |
| SVQINVAKVDEEGRAIP [RPS21A] | 3.31 ± 0.048 |
| SVSPQMNAILTDVKLTL [SMD1] | 2.83 ± 0.04 |
| SVVSQIEKGSTFGINLI [FAS1] | 3 ± 0.08 |
| SWRNITNLSGGEKTLSS [SMC4] | 2.81 ± 0.098 |
| SYAVSPYAQKPLQGIFH [QCR8] | 2.54 ± 0.054 |
| SYDVENVNSRNQLVEPN [SRB5] | 3.42 ± 0.13 |
| SYPILNESSTFLKLVLS [SIN4] | 2.11 ± 0.05 |
| SYPVNGSQKTFEIDDEH [RPS6A] | 2.81 ± 0.12 |
| SYRNAFTNVLTKYSDVL [YJL039C/NUP192] | 2.36 ± 0.066 |
| SYVVPRLYLKDQTNHIE [ECM29] | 2.83 ± 0.056 |
| TAAYARTIGIAVDHRRQ [RPL13A] | 1.22 ± 0.088 |
| TAEFGKILAGLHDTQIE [RPN10] | 3.13 ± 0.14 |
| TANALPLPAVFSAPIRP [RPL4A] | 1.87 ± 0.065 |
| TAQKYPIYTGDGWVKLT [YMR153W/NUP53] | 1.62 ± 0.1 |
| TARINNRRLFKKCIDFF [RRI2] | 1.91 ± 0.11 |

| Sequence | protein stability index |
| --- | --- |
| TARVMGGLKNGVLYQGN [DIS3] | 3.06 ± 0.047 |
| TATASLGVIHKGNLLEG [RPN2] | 1.98 ± 0.16 |
| TDKIGRSVPAPGKGILT [FAS2] | 2.79 ± 0.2 |
| TDKKAFLGALKYLPHAI [PRP8] | 3.19 ± 0.072 |
| TDKSNSPIGFTNSPQIS [SMC2] | 3.03 ± 0.043 |
| TDSSALTYDRLEFATIR [PRE9] | 3.01 ± 0.056 |
| TEEKCKNFIESESVGAF [YJL039C/NUP192] | 3.33 ± 0.062 |
| TEFSKNDLEVGVATKDK [SCL1] | 2.63 ± 0.088 |
| TEGRSRDGGLRLGEMER [RET1] | 1.49 ± 0.28 |
| TEHLTELSDNEENFEAT [YCG1] | 3.54 ± 0.099 |
| TEKLKISPESVFGTLGE [SMC3] | 2.09 ± 0.095 |
| TEKMEEQLDLLSAILDP [MED11] | 3.13 ± 0.12 |
| TELRQLFQENDDDDDDD [DSN1] | 2.24 ± 0.11 |
| TENEKFISYHDKYLCML [NUT1] | 3.23 ± 0.049 |
| TEQIKMRILSNDITNLQ [SRB8] | 2.15 ± 0.043 |
| TETSNEDEDEDDETPSC [SNU114] | 3.02 ± 0.055 |
| TEVIIRATRTQDVLGEN [RPS3] | 3.14 ± 0.13 |
| TEVRAEDEAALAKLVST [RPL8A] | 2.59 ± 0.055 |
| TEYFENKQSVSNLSPDL [DSN1] | 3.34 ± 0.089 |
| TFENINSLFYLKWSACT [IRR1] | 1.27 ± 0.17 |
| TFIYGYCDKNFRENMSK [PRE3] | 2.21 ± 0.092 |
| TFKDGVILGADSRTTTG [PRE3] | 2.69 ± 0.19 |
| TFLVSNDDEVSQFCYVS [RPN14] | 2.28 ± 0.13 |
| TFNSKPVRTIVPISTSQ [SIR4] | 2.42 ± 0.039 |

| Sequence | protein stability index |
| --- | --- |
| TFPVGRVHRLLRRGNYA [HTA1] | 2.5 ± 0.087 |
| TFRIFHNHDTGCDENDS [YDL088C/ASM4] | 3.27 ± 0.1 |
| TFTQLVSSSLYERRFGP [PUP3] | 2.73 ± 0.12 |
| TGEKPIITGSTSTSSSN [MED8] | 2.57 ± 0.044 |
| TGEWFSSYEEFLERFDF [ITC1] | 2.09 ± 0.12 |
| TGGTRTKTPGPGGQAAL [RPS14A] | 3.05 ± 0.034 |
| TGNNNNIATQQNMQQSL [GAL11] | 2.55 ± 0.11 |
| TGWITQSTPVLLNHGER [RPN1] | 1.88 ± 0.056 |
| THFLLNIYDQLRNKLIE [RRP6] | 2.38 ± 0.051 |
| THIAESAKEIAKASGCD [MCD1] | 3.15 ± 0.049 |
| THIPQTNLKNHPAYLFK [YLR018C/POM34] | 2.64 ± 0.054 |
| THRNKDGTGVRVIVAGT [FAS1] | 1.62 ± 0.21 |
| TIGAIFLNHAFDYMNRY [CDC53] | 1.78 ± 0.076 |
| TINISLSFSWAILLIIN [NUT1] | 1.93 ± 0.078 |
| TINLDRFMKGRRSKQLI [RPC82] | 1.79 ± 0.17 |
| TIQSDLNLSLHKLDLAK [SMC2] | 3.01 ± 0.038 |
| TIQYDPPETKLPYPTYW [SNF5] | 2.98 ± 0.039 |
| TISEKEQDILDLIAEQV [SSN2] | 3.05 ± 0.12 |
| TIVLSLNVKCTRNPDAP [RPC40] | 2.91 ± 0.13 |
| TKDLLSKSPSEWQDIIH [CSE2] | 3.07 ± 0.075 |
| TKFKVRGSSSLYTLVIN [RPL38] | 1.55 ± 0.13 |
| TKFLAKNGVIPEESKGS [SWP82] | 2.98 ± 0.15 |
| TKIKPFIKVVNYNHLLP [RPL27A] | 2.77 ± 0.093 |

same assay, conditions: ubr1∆

| Sequence | protein stability index |
| --- | --- |
| SVINNYLREDQMIDTSI [NUT1] | 2.84 ± 0.082 |
| SVIQLCGGINDSIPYPQ [ECM29] | 2.88 ± 0.078 |
| SVIVDSKVTVPPSKHST [ESC2] | 2.81 ± 0.049 |
| SVKPHVVEPEHMADAKI [SIR4] | 3 ± 0.17 |
| SVLLQQLLTPGSKISSN [YGL172W/NUP49] | 2.56 ± 0.14 |
| SVLNPFLLRRVKADVEK [ISW2] | 1.31 ± 0.12 |
| SVMDPITSKRKAELLLK [DIS3] | 2.85 ± 0.085 |
| SVPLMINAKNIAFASNY [RRP43] | 1.41 ± 0.052 |
| SVPLVIGQFLEPIDQNT [RPT3] | 2.71 ± 0.067 |
| SVQINVAKVDEEGRAIP [RPS21A] | 3.32 ± 0.043 |
| SVSPQMNAILTDVKLTL [SMD1] | 3 ± 0.057 |
| SVVSQIEKGSTFGINLI [FAS1] | 3.26 ± 0.076 |
| SWRNITNLSGGEKTLSS [SMC4] | 3.01 ± 0.11 |
| SYAVSPYAQKPLQGIFH [QCR8] | 2.6 ± 0.052 |
| SYDVENVNSRNQLVEPN [SRB5] | 3.34 ± 0.12 |
| SYPILNESSTFLKLVLS [SIN4] | 2.22 ± 0.031 |
| SYPVNGSQKTFEIDDEH [RPS6A] | 2.99 ± 0.12 |
| SYRNAFTNVLTKYSDVL [YJL039C/NUP192] | 2.13 ± 0.048 |
| SYVVPRLYLKDQTNHIE [ECM29] | 2.15 ± 0.033 |
| TAAYARTIGIAVDHRRQ [RPL13A] | 1.77 ± 0.055 |
| TAEFGKILAGLHDTQIE [RPN10] | 3.02 ± 0.1 |
| TANALPLPAVFSAPIRP [RPL4A] | 1.98 ± 0.04 |
| TAQKYPIYTGDGWVKLT [YMR153W/NUP53] | 1.21 ± 0.041 |
| TARINNRRLFKKCIDFF [RRI2] | 2.18 ± 0.054 |
| TARVMGGLKNGVLYQGN [DIS3] | 3.13 ± 0.056 |

| Sequence | protein stability index |
| --- | --- |
| TATASLGVIHKGNLLEG [RPN2] | 2.72 ± 0.081 |
| TCQILESGEDEAEFSLR [RRP46] | 3.46 ± 0.19 |
| TDKIGRSVPAPGKGILT [FAS2] | 3.21 ± 0.12 |
| TDKKAFLGALKYLPHAI [PRP8] | 2.96 ± 0.054 |
| TDKSNSPIGFTNSPQIS [SMC2] | 3.03 ± 0.043 |
| TDQSTEEEKSVDASPND [CSL4] | 3.06 ± 0.17 |
| TDSSALTYDRLEFATIR [PRE9] | 3.18 ± 0.045 |
| TEEKCKNFIESESVGAF [YJL039C/NUP192] | 3.47 ± 0.056 |
| TEFSKNDLEVGVATKDK [SCL1] | 2.71 ± 0.075 |
| TEGRSRDGGLRLGEMER [RET1] | 1.58 ± 0.071 |
| TEHLTELSDNEENFEAT [YCG1] | 2.96 ± 0.12 |
| TEKLKISPESVFGTLGE [SMC3] | 1.99 ± 0.032 |
| TEKMEEQLDLLSAILDP [MED11] | 3.4 ± 0.1 |
| TELRQLFQENDDDDDDD [DSN1] | 2.38 ± 0.092 |
| TENEKFISYHDKYLCML [NUT1] | 3.11 ± 0.053 |
| TEQIKMRILSNDITNLQ [SRB8] | 2.16 ± 0.029 |
| TETSNEDEDEDDETPSC [SNU114] | 2.74 ± 0.046 |
| TEVIIRATRTQDVLGEN [RPS3] | 3.35 ± 0.079 |
| TEVRAEDEAALAKLVST [RPL8A] | 2.74 ± 0.048 |
| TEYFENKQSVSNLSPDL [DSN1] | 3.58 ± 0.058 |
| TFENINSLFYLKWSACT [IRR1] | 1.21 ± 0.051 |
| TFEQFKDTIVKEAEDKT [RPC37] | 2.43 ± 0.29 |
| TFHHHGRQTVLIKDNSA [SRB2] | 2.56 ± 0.24 |
| TFIYGYCDKNFRENMSK [PRE3] | 2.65 ± 0.053 |
| TFKDGVILGADSRTTTG [PRE3] | 2.59 ± 0.14 |

| Sequence | protein stability index |
| --- | --- |
| TFNSKPVRTIVPISTSQ [SIR4] | 2.35 ± 0.028 |
| TFPVGRVHRLLRRGNYA [HTA1] | 2.27 ± 0.12 |
| TFRIFHNHDTGCDENDS [YDL088C/ASM4] | 3.11 ± 0.1 |
| TFTQLVSSSLYERRFGP [PUP3] | 2.94 ± 0.092 |
| TGEKPIITGSTSTSSSN [MED8] | 2.37 ± 0.033 |
| TGEWFSSYEEFLERFDF [ITC1] | 2 ± 0.15 |
| TGGTRTKTPGPGGQAAL [RPS14A] | 3.149 ± 0.028 |
| TGNNNNIATQQNMQQSL [GAL11] | 2.59 ± 0.052 |
| TGWITQSTPVLLNHGER [RPN1] | 2.53 ± 0.037 |
| THFLLNIYDQLRNKLIE [RRP6] | 2.8 ± 0.033 |
| THIAESAKEIAKASGCD [MCD1] | 3.34 ± 0.075 |
| THIPQTNLKNHPAYLFK [YLR018C/POM34] | 2.75 ± 0.029 |
| THRNKDGTGVRVIVAGT [FAS1] | 1.6 ± 0.15 |
| TIGAIFLNHAFDYMNRY [CDC53] | 1.89 ± 0.046 |
| TINISLSFSWAILLIIN [NUT1] | 2.43 ± 0.044 |
| TINLDRFMKGRRSKQLI [RPC82] | 2.74 ± 0.078 |
| TIQSDLNLSLHKLDLAK [SMC2] | 2.828 ± 0.028 |
| TIQYDPPETKLPYPTYW [SNF5] | 2.94 ± 0.039 |
| TISEKEQDILDLIAEQV [SSN2] | 2.97 ± 0.13 |
| TKDLLSKSPSEWQDIIH [CSE2] | 3.17 ± 0.049 |
| TKFKVRGSSSLYTLVIN [RPL38] | 2.13 ± 0.09 |
| TKFLAKNGVIPEESKGS [SWP82] | 3.45 ± 0.13 |
| TKIFNSVAEVFQKAQGS [YCG1] | 1.5 ± 0.07 |
| TKIKPFIKVVNYNHLLP [RPL27A] | 2.64 ± 0.11 |
